Results as given in the supplement of paper PMC10567573.

B1: NEK8 (parent)
chain: YTFGSNQHGQLGTNTRRGSRAPCK

Variants of: B1
Experiment: protein stability index of a GFP-peptide fusion (GPS, HEK-293T) (PSI 1-6); higher = more stable
Conditions: c terminus: a fixed tail appended
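Note: lentivirally expressed fusions sorted by FACS into six bins by GFP to DsRed ratio, PSI derived from sequencing read proportions per bin multiplied by bin number.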

Protein stability index: each site, then its substitutions
T13: K 3.79, Y 3.62, A 4.44, I 3.15, S 4.3, H 4.35, M 3.72, P 4.45, D 4.44, E 4.37, Q 4.35, C 3.13, V 3.67, N 4.06, G 4.43, R 4.11, F 3.31, W 3.22, L 3.58
S5: W 2.67, V 4.09, E 4.61, A 3.63, F 2.23, N 4.14, C 3.72, Y 2.49, H 3.66, T 4.36, Q 4.01, M 4.11, D 4.53, I 3.44, G 3.86, P 3.84, K 3.5, R 3.96, L 3.62
R16: S 3.85, E 3.63, P 3.94, L 3.82, Y 3.37, C 3.36, D 4.05, W 1.8, F 2.57, N 4.02, V 3.99, Q 3.97, H 4.25, A 3.81, K 3.67, G 4.24, M 3.63, T 4.21, I 3.56
R17: A 3.46, D 3.84, L 3.92, F 3.18, P 3.75, Y 3.5, I 3.51, V 3.66, K 3.73, Q 4.02, T 3.65, C 3.07, G 4.09, H 3.94, M 3.88, E 4.07, S 3.81, N 3.97
G4: P 4.19, H 3.91, A 3.44, V 4.2, D 4.39, E 4.33, M 3.44, T 3.54, S 3.66, L 3.99, N 3.82, W 2.91, R 4.36, I 3.72, K 3.6, F 3.64, Y 3.42, Q 4.04, C 2.91
Q10: Y 3.52, H 3.89, I 3.47, R 3.82, F 3.33, W 1.52, L 3.36, E 4.33, D 4.45, K 3.41, M 3.58, N 3.83, T 4.32, A 4.21, G 4.08, P 4, V 3.31, C 3.36, S 3.58
Q7: N 4.06, E 4.2, H 3.84, M 3.66, P 3.81, W 2.73, G 4.07, L 2.28, C 3.59, K 3.8, T 4.28, V 3.84, S 3.58, D 3.98, R 3.81, F 1.54, A 3.55, Y 3.09, I 3.45
F3: P 2.02, D 4.11, M 4.13, Y 3.54, N 3.95, L 3.99, I 3.89, Q 3.69, G 2.29, C 3.58, E 4.32, W 2.06, T 3.77, H 3.94, R 3.92, V 3.98, A 3.31, K 4.32, S 3.2
H8: T 3.87, K 4, L 3.37, V 4.01, C 3.94, R 3.92, N 3.99, D 4.15, S 3.77, M 3.75, I 3.48, F 3.23, Q 3.92, E 4.47, A 3.98, P 3.97, W 2.36, G 3.61, Y 3.36
S19: A 3.95
N14: K 3.88, P 3.77, R 3.88, S 3.88, A 3.38, D 4.35, H 4.07, F 3.71, M 3.44, L 3.51, I 2.73, V 2.06, G 3.49, T 2.98, C 2.29, W 3.21, Y 3.63, E 3.69, Q 3.69
Y1: P 4.52, L 4.13, R 4.64, K 4.79, N 5.24, M 4.31, S 4.89, Q 4.99, W 4.28, T 4.49, V 4.6
G18: A 3.33, P 3.53, C 3.48, H 3.52, I 3.61, D 3.94, S 3.43, E 3.69, F 2.85, Y 3.26, K 4.05, M 3.47, T 4.08, R 3.95, L 3.77, V 3.46, Q 3.27, N 3.81, W 3.23
G12: L 4.15, P 4.43, F 3.09, A 4.36, S 3.97, C 3.71, M 3.84, H 4.37, V 4.11, R 4.11, E 4.19, W 2.73, D 4.68, I 3.79, Q 3.93, T 4.32, Y 3.83, K 3.98, N 4.18
T2: A 2.77, H 1.95, Q 3.5, I 2.44, C 2.88, M 4.5, R 4.75, E 4.78, K 3.83, P 4.18, V 2.36, L 3.61, D 4.43, N 4.61, F 3.25, W 3.32, Y 4.24, S 4.31, G 4.33
G9: D 4.11, W 2.16, Q 3.94, N 3.98, T 3.82, P 3.38, F 2.1, M 3.19, C 3.48, L 3.19, H 4.16, A 3.39, I 3.05, V 2.78, K 4.12, Y 2.23, R 3.94, E 3.98, S 4.15
N6: G 3.52, V 3.75, F 2.61, A 3.94, R 4.18, Y 3.48, Q 4.21, H 3.75, C 3.78, M 3.44, T 3.54, L 3.29, D 4.24, E 4.44, P 4.07, S 3.86, W 3.06, K 3.44, I 3.6
T15: D 3.85, E 4.17, A 3.9, L 3.7, Y 3.67, S 4.28, P 3.6, W 3.49, K 3.94, M 4.09, G 3.77, F 3.56, R 3.98, H 4.05, Q 4.25, I 4.14, C 3.56, V 4.17, N 3.82
L11: E 4.53, S 4.94, A 4.38, C 4.02, H 4.23, P 4.22, T 4.43, N 4.3, D 4.49, Q 4.49, W 3.22, V 4.1, Y 3.95, G 4.53, I 3.93, F 3.76, M 4.01, R 4.65, K 3.56
